T1: full length human LEPR on cells (human, UniProt P48357 22-1165)
T1 sequence: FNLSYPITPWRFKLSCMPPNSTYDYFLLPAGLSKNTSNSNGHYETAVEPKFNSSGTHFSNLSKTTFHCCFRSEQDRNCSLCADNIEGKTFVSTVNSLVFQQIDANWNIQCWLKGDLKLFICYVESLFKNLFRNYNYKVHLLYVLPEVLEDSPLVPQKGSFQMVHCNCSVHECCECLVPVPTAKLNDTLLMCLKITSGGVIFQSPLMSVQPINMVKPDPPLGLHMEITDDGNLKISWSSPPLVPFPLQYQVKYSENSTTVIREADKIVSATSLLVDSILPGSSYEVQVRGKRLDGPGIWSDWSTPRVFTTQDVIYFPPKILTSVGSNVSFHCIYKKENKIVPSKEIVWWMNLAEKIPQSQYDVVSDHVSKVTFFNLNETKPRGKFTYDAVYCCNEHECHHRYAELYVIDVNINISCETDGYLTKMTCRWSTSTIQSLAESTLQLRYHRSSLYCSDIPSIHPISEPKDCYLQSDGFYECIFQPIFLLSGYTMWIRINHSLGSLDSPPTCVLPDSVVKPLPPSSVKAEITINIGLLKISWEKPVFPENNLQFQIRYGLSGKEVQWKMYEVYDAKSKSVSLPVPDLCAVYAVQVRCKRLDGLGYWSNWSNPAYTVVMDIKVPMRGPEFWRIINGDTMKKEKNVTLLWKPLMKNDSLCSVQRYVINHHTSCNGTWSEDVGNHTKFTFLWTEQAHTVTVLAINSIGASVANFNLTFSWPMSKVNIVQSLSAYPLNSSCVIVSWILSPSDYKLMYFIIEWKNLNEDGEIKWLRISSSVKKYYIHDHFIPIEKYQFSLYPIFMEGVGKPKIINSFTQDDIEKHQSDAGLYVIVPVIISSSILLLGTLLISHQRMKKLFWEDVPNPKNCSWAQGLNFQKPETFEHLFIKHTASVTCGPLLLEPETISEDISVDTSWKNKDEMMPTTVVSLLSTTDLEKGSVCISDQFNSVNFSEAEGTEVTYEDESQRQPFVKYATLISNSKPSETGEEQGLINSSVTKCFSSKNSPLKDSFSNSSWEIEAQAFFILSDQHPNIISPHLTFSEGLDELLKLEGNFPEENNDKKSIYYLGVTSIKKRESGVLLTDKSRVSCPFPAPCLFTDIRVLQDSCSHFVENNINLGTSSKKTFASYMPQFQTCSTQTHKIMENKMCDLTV

T2: human LEPR extracellular domain expressed with a C-terminal mouse IgG2a Fc tag (hLEPR.mFc) (human)
T2 construct: also called dimeric human LEPR
T2 chain: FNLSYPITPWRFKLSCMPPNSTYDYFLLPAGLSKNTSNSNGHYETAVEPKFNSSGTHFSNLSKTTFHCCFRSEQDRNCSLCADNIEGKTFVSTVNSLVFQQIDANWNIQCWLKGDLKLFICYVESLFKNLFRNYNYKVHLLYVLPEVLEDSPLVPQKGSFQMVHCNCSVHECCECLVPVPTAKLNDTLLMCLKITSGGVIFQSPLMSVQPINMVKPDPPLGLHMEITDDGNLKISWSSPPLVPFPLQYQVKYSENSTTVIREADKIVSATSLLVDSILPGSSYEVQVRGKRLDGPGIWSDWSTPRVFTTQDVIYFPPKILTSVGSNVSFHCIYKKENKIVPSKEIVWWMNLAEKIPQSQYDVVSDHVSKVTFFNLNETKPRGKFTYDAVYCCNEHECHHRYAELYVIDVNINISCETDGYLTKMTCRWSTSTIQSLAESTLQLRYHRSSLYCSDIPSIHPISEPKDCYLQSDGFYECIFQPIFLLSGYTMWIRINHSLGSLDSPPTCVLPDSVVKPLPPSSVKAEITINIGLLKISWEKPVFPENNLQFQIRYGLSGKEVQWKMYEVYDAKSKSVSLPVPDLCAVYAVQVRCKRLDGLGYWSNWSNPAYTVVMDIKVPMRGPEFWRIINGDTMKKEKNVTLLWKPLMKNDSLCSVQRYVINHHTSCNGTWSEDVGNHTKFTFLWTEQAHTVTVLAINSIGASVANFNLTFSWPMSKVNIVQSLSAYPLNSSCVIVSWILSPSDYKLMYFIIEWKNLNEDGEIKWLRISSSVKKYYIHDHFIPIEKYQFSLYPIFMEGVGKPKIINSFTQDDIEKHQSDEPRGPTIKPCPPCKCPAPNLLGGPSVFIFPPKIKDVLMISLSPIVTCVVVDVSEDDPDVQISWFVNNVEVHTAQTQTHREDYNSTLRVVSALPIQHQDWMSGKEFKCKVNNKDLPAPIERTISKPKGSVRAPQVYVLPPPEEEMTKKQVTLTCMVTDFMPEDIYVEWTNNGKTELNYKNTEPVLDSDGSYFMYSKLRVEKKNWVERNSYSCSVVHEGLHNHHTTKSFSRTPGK


Key:
[1] = target: T1, full length human LEPR on cells; assay: cell-based or functional assay
[2] = target: T3, extracellular domain portion of LEPR protein expressed with a C-terminal human Fc tag (hLEPR.hFc) (human); assay: blocking ELISA: 10 nM hLEPR.hFc to coated hLeptin, 500 nM Ab
T3 construct: also called dimeric human LEPR
Method: These antibody-protein or protein-protein complexes were then incubated for 1.5 hour at room temperature (RT). […] Samples were developed with a TMB solution (BD Biosciences, #555214; substrate A and B mixed at 1:1 ratio as per manufacturer's instructions) to produce a colorimetric reaction and then neutralized with 1M sulfuric acid before measuring absorbance at 450 nm on a Victor X5 plate reader.
Data analysis was performed using a sigmoidal dose-response model within Prism™ software (GraphPad). […] In the calculation, binding signal of 10 nM of hLEPR.hFc without the presence of the antibody was referenced as 100% binding or 0% blocking; and the baseline signal of buffer alone without the presence of hLEPR.hFc was referenced as 0% binding or 100% blocking.

[3] = target: T2, human LEPR extracellular domain …; assay: SPR, captured mAb, 25C
Method: Equilibrium dissociation constants (KD values) for LEPR binding to purified anti-LEPR monoclonal antibodies were determined using a real-time surface plasmon resonance biosensor using a Biacore 4000 instrument. All binding studies were performed in 10 mM HEPES, 150 mM NaCl, 3 mM EDTA, and 0.05% v/v Surfactant Tween-20, pH 7.4 (HBS-ET) running buffer at 25° C. and 37° C. The Biacore sensor surface was first derivatized by amine coupling with a monoclonal mouse anti-human Fc antibody (GE, #BR-1008-39) to capture anti-LEPR monoclonal antibodies. […] Kinetic association (kₐ) and dissociation (kd) rate constants were determined by fitting the real-time binding sensorgrams to a 1:1 binding model with mass transport limitation using Scrubber 2.0c curve-fitting software. Binding dissociation equilibrium constants (KD) and dissociative half-lives (t½) were calculated from the kinetic rate constants as: […]

Binder | % activation, with 200 pM human Leptin [1] [%] | % activation, without human Leptin [1] [%] | EC50, STAT3-Luc reporter, with 200 pM human Leptin [1] [M] | EC50, STAT3-Luc reporter, without human Leptin [1] [pM] | % blockade [2] [%] | 100 nM hLEPR-mFc Bound (RU) [3] [RU] | Kd [3] [nM] | koff [3] [s⁻¹] | kon [3] [M⁻¹ s⁻¹] | t½ [3] [min]
H4H18446P2 (antibody, human IgG4, V domains shown, Fully human antibody with human IgG4 Fc (H4H prefix)) VH: EVQLVESGGGLVQPGGSLRLSCAASGFTFSNYGMTWVRQAPGKGLEWVSAITGGGGSTYYSNSVKGRFTISRDNSKNTVYLRMNSVRAEDTAVYYCAKYKWNFVDDWGQGTTVTVSS VL: not shown | 68 | 6 | 3.42e-11 | 373 | -5 | 20 | 6.48 | 0.000208 | 32000 | 56
H4H18438P2 (antibody, human IgG4, V domains shown, Fully human antibody with human IgG4 Fc (H4H prefix)) VH: QVQLVESGGGVVQPGRSLRLSCAASGFSFNTYGMHWVRQAPGKGLEWVTIIWYDGSIKYYADSVKGRFTISRDNSKNTLYLQMNSLRAEDTAVYYCARGGYSGYLYFDYWGQGTLVTVSS VL: not shown | 76 | 5 | 2.02e-11 | 1490 | 15 | 51 | 4.7 | 0.000244 | 51900 | 47
H4H18445P2 (antibody, human IgG4, V domains shown, Fully human antibody with human IgG4 Fc (H4H prefix)) VH: QVQLQESGPGLVKPSQTLSLTCTVSGGSISSGGDYWSWIRQLPGKGLEWIGYIYYSGSAYYNPSLKSRGTISIDTSKNQFSLKLTSVTAADTAVYFCVKLRFLEWFLGGWFGPWGQGTLVTVSS VL: not shown | 97 | 5 | 4.1e-10 | 11900 | 28 | 76 | 4.03 | 0.000492 | 122000 | 23
H4H16679P2 (antibody, human IgG4, V domains shown, Fully human antibody with human IgG4 Fc (H4H prefix)) VH: QVQLVESGGGVVQPGRSLRLSCTASGFTFSSYAMYWVRQAPGKGLEWVSVIYYDGSYKYYADSVKGRFTISRDNSKNTLYLQMDSLRAEDTAVYYCASYNWNYWYFDFWGRGTLVTVSS VL: not shown | 88 | 65 | 7.37e-11 | 86.2 | 7 | 78 | 1.66 | 9.68e-05 | 58400 | 119
H4H18417P2 (antibody, human IgG4, V domains shown, Fully human antibody with human IgG4 Fc (H4H prefix)) VH: QVQLVESGGGVVQPGRSLRLSCAASGFTFSTYGMHWVRQAPGKGLEWVSVISYDESNKYYADSVKGRFTISRDNSKNALYLQMNSLRNEDTAVYYCARDRPFGLVTGWFDPWGQGTLVTVSS VL: not shown | 87 | 5 | 5.23e-10 | 153 | 16 | 90 | 4.04 | 0.000563 | 140000 | 21

More lines, in order of falling Kd [3], values ahead:

% activation, with 200 pM human Leptin [1] [%] | % activation, without human Leptin [1] [%] | EC50, STAT3-Luc reporter, with 200 pM human Leptin [1] [M] | EC50, STAT3-Luc reporter, without human Leptin [1] [pM] | % blockade [2] [%] | 100 nM hLEPR-mFc Bound (RU) [3] [RU] | Kd [3] [nM] | koff [3] [s⁻¹] | kon [3] [M⁻¹ s⁻¹] | t½ [3] [min] | Binder
76 | 68 | 1.91e-10 | 187 | 9 | 69 | 3.45 | 0.000164 | 47700 | 70 | H4H17319P2 (antibody, human IgG4, V domains shown, Fully human antibody with human IgG4 Fc (H4H prefix)) VH: QVQLVESGGSVVQPGRSLRLSCAASGFTFSTYAMYWVRQTPGKGLEWVAVLYSDGSNKYYIDSVKGRFTISRDTSTNTLYLQMSSLRADDSALYYCARLNWDYWYFDLWGRGTLVTVSS VL: not shown
76 | 66 | 2.57e-10 | 207 | 6 | 65 | 2.18 | 8.93e-05 | 41000 | 129 | H4H17321P2 (antibody, human IgG4, V domains shown, Fully human antibody with human IgG4 Fc (H4H prefix)) VH: QVQLVESGGGVVQPGRSLRLSCEASGFSSSDNAMYWVRQAPGKGLEWVSVIYHDGSYKYYEDSVKGRFTIARDNSKNTLYLQMNSLRAEDTAVYYCARYNWNHWYFDVWGRGTLVTVSS VL: not shown
66 | 13 | 5.23e-11 | 212 | 8 | 116 | 0.964 | 6.82e-05 | 70500 | 169 | H4H18449P2 (antibody, human IgG4, V domains shown, Fully human antibody with human IgG4 Fc (H4H prefix)) VH: EVQLVESGGGLVQPGGSLRLSCVASGFTFNKYDMHWVRQTTGKGLEWVSGIDTDGDTYYPGSVKGRFTISRENAENSLYLQMNGLRVGDTAVYYCARWPWSGFYGAFDIWGQGTMVTVSS VL: not shown
88 | 68 | 5.19e-11 | 61.9 | -7 | 102 | 0.785 | 8.32e-05 | 106000 | 139 | H4H16650P2 (antibody, human IgG4, V domains shown, Fully human antibody with human IgG4 Fc (H4H prefix)) VH: QVQLVESGGGVVQPGKSLRLSCVASGFTFSSDAMYWVRQAPGKGLEWVAVIYYDGNYQYYEDSVKGRFTISRDNSQNTLDLQMNSLRVDDTAVYFCARLNWDYWYLDLWGRGTLVTVSS VL: not shown
